The values that follow come from patent US20090023900 (published 2009).

In one experiment the target is integrin alphaIIbbeta3 (human, UniProt P08514). The experiment can be described thus: ELISA. On the technique in general: ELISA stands for enzyme-linked immunosorbent assay.
A further experiment deals with T1, integrin alphaVbeta5 (human, UniProt P06756).
T1 chain 1: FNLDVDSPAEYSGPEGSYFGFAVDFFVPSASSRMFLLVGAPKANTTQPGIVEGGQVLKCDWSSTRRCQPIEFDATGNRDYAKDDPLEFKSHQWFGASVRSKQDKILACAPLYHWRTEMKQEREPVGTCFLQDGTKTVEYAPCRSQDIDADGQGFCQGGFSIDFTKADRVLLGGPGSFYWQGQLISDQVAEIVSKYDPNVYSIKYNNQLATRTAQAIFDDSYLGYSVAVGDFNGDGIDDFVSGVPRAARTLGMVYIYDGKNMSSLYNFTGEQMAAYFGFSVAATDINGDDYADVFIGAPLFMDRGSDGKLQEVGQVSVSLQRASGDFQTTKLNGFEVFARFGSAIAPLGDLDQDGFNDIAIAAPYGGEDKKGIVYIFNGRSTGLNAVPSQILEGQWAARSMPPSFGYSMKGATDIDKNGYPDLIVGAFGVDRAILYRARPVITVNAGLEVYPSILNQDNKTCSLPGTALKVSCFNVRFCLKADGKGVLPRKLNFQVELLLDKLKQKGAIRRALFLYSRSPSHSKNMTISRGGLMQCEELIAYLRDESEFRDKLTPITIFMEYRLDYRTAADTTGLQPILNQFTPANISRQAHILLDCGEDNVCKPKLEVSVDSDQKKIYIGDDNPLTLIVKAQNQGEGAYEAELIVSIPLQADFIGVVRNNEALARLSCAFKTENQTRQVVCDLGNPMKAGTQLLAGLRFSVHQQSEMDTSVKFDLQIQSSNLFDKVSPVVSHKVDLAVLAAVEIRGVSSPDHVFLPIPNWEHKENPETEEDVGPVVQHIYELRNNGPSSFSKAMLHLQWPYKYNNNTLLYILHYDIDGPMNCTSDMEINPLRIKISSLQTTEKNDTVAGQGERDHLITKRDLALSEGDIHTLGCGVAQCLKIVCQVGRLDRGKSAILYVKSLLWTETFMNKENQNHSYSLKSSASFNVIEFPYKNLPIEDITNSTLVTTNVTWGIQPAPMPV
T1 chain 2: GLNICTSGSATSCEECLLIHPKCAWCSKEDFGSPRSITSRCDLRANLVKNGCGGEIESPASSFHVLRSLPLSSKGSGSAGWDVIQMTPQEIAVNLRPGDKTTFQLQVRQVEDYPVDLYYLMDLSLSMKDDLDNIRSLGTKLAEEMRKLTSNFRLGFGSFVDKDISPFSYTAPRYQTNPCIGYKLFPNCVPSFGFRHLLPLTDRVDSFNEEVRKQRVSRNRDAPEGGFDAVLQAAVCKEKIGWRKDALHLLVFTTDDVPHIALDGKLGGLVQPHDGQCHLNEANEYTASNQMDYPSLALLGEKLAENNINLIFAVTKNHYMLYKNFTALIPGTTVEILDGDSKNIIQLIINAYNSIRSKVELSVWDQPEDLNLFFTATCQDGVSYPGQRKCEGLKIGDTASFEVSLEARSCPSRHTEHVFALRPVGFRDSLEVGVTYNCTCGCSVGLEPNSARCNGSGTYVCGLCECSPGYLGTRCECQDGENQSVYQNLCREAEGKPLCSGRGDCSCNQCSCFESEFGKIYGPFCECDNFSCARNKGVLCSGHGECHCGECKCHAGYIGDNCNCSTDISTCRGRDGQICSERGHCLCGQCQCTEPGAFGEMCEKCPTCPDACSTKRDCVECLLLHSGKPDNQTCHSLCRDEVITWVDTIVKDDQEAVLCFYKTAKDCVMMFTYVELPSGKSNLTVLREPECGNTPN
In words: ELISA.

B1: Vitaxin (antibody, V domains shown)
VH: QVQLVESGGGVVQPGRSLRLSCAASGFTFSSYDMSWVRQAPGKGLEWVAKVSSGGGSTYYLDTVQGRFTISRDNSKNTLYLQMNSLRAEDTAVYYCARHNYGSFAYWGQGTTVTVSS
VL: EIVLTQSPATLSLSPGERATLSCQASQSISNHLHWYQQRPGQAPRLLIKYRSQSISGIPARFSGSGSGTDFTLTISSLEPEDFAVYYCQQSGSWPHTFGGGTKVEIK
For B1, the binding result with integrin alphaIIbbeta3 and in the experiment with integrin alphaVbeta5 was “no binding” throughout.
